Experiment [1] concerns the target T1, recombinant mouse DLL4 (C-terminally His-tagged extracellular domain, R&D Systems) (mouse, UniProt Q9JI71 27-532).
T1 construct: extracellular domain; also called rmDLL4; mDLL4
Put plainly: SPR (Biacore), rmDLL4.

In experiment [2] the target is T2, human DLL4 expressed on cells (CHO-hDLL4; HEK293-hDLL4) (human, UniProt Q9NR61 27-685).
T2 construct: full length human DLL4 overexpressed on CHO cells (FMAT, FACS) or HEK293 cells (reporter assay)
Put plainly: FACS on CHO-hDLL4 cells.

Experiment [3] deals with T2, human DLL4 expressed on cells …. Briefly: FACS; summary table, column taken as hDLL4. A general note: Flow cytometry measures light scatter and fluorescence of single cells or particles in a stream.
Experiment [4] deals with T3, mouse DLL4 expressed on CHO cells (mouse, UniProt Q9JI71 27-686).
T3 construct: whole, on cells; also called mDLL4; CHO-mDLL4
T3 sequence (Q9JI71 27-686): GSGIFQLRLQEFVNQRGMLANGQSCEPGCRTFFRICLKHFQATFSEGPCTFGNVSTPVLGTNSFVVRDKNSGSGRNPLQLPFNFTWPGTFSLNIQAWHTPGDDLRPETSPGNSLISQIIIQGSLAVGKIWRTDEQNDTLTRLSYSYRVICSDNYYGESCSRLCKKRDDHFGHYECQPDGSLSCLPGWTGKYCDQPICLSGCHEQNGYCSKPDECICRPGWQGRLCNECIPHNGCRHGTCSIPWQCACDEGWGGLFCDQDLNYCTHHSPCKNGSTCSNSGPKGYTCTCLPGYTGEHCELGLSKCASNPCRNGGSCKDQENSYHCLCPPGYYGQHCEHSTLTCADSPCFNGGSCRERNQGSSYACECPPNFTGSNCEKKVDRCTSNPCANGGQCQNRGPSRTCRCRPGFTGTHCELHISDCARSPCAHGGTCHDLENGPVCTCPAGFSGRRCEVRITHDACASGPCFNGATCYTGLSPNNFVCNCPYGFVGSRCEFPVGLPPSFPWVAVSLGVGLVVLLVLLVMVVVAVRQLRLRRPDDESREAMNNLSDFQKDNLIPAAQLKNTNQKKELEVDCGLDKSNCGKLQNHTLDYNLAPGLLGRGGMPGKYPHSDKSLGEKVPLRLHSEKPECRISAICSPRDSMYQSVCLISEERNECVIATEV
Put plainly: competition FMAT, labelled hNotch1-Fc on CHO-mDLL4 cells.

The target in experiment [5] is T3, mouse DLL4 expressed on CHO cells. Put plainly: competition FMAT CHO-mDLL4; summary table.
Experiment [6] deals with T2, human DLL4 expressed on cells …. Put plainly: competition FMAT, labelled hNotch1-Fc on CHO-hDLL4 cells.
The target of experiment [7] is T4, cynomolgus DLL4 expressed on CHO cells (cynomolgus, UniProt Q9NR61 27-685 (human entry)).
T4 construct: also called cDLL4; CHO-cDLL4
T4 chain: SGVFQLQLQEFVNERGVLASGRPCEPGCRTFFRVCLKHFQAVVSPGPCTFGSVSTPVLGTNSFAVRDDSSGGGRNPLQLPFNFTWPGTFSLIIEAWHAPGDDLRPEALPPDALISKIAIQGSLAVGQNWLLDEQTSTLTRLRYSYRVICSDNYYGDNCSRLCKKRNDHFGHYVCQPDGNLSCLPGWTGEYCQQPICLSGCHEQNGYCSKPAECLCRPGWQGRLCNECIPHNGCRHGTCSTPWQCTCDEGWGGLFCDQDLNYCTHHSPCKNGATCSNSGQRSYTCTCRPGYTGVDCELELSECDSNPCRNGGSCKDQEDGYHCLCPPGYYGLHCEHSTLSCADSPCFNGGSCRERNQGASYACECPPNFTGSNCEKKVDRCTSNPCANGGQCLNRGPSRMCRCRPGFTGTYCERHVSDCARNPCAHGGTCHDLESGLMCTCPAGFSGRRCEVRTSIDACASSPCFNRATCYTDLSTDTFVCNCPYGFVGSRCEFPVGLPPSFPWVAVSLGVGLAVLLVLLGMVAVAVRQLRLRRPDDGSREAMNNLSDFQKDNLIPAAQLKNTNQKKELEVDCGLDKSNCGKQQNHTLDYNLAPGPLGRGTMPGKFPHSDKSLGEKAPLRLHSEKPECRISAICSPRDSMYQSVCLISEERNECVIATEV
Put plainly: FACS; summary table, column taken as cDLL4.

Experiment [8] addresses T4, cynomolgus DLL4 expressed on CHO cells. Put plainly: FACS on CHO-cDLL4 cells.
Experiment [9] has as its target T2, human DLL4 expressed on cells …. Briefly: competition FMAT CHO-hDLL4; summary table.
Experiment [10] addresses T5, recombinant human DLL4 (C-terminally His-tagged extracellular domain, R&D Systems) (human, UniProt Q9NR61 25-522, biotinylated in the competition ELISA).
T5 construct: also called rhDLL4; hDLL4
Put plainly: competition ELISA hDLL4/hNotch1-Fc; summary table. For orientation: In an ELISA, binding on a coated surface is turned into a signal by an enzyme label.

Experiment [11] has as its target T2, human DLL4 expressed on cells …. Put plainly: cell-based or functional assay.
Experiment [12] deals with T5, recombinant human DLL4 (C-terminally …). Put plainly: competition ELISA, biotinylated hDLL4 to coated hNotch1-Fc.
Experiment [13] concerns the target T1, recombinant mouse DLL4 (C-terminally …). Briefly: SPR (Biacore); summary table. A general note: SPR reads the build-up and loss of mass on a sensor chip optically.
The target of experiment [14] is T5, recombinant human DLL4 (C-terminally …). Briefly: SPR (Biacore); summary table.
The target is the same in experiment [15]. Put plainly: SPR (Biacore), rhDLL4. As for the experimental part:
Kinetic analysis to determine the affinity of the DII4-VHH interaction is performed by Surface Plasmon Resonance (SPR) on a Biacore T100 instrument. […] Purified VHHs or Fab fragment are injected for 2 minutes at different concentrations (between 10 and 300 nM) and allowed to dissociate for 20 min at a flow rate of 45 μl/min. Between sample injections, the surfaces are regenerated with 10 mM glycine pH1.5 and 100 mM HCl. HBS-N (Hepes buffer pH7.4) is used as running buffer. If possible, data are evaluated by fitting a 1:1 interaction model (Langmuir binding) onto the binding curves. The affinity constant KD is calculated from resulting association and dissociation rate constants (kₐ) and […].

For experiment [16], the target named is T3, mouse DLL4 expressed on CHO cells. Put plainly: FACS on CHO-mDLL4 cells.
The target is the same in experiment [17]. Briefly: FACS; summary table, column taken as mDLL4.

For orientation: Kd means the free concentration of one partner at which half of the binding sites on the other are occupied at equilibrium, for simple one-to-one binding. One may read the koff as a measure of how fast the partners let go of each other. Usually kon stands for the rate constant with which the complex forms. What is called EC50 is the concentration at which the effect is half-maximal. A word on the IC50: it is the concentration at which inhibition is half-maximal.

T1 sequence (Q9JI71 27-532): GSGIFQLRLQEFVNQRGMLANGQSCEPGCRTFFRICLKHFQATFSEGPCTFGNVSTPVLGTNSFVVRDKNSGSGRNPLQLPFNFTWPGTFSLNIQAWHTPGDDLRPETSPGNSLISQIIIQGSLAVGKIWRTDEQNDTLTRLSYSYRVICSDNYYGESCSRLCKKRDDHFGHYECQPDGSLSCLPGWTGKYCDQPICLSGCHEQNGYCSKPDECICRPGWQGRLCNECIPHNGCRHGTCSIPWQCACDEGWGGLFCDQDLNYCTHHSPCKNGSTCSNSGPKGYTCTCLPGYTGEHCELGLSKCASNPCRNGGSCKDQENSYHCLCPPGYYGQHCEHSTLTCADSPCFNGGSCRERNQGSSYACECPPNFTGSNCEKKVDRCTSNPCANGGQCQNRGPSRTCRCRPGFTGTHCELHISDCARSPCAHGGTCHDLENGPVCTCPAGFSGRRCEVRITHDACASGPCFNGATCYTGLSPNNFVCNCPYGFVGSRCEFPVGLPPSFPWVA

B1: DLLBII101G08 (VHH, not shown: small tags and cut ends)
VHH: EVQLVESGGGLVQAGGSLRLSCAASGRTFSSYAMAWFRQAPGKEREFVAAIRWSGGTAYYADSVQGRFTISRDNAKNTVYLQMNSLKPEDTAVYYCANRAADTRLGPYEYDYWGQGTQVTVSS
notes: parent VHH; also called 101G08 (wt); 101G8
Take B1: the Kd was determined as 60 nM in experiment [1], 60 nM in experiment [13], 48 nM in [14] and 48 nM in experiment [15]. The koff in experiment [1] stood at 0.0056 s⁻¹; in experiment [15] it was 0.0023 s⁻¹. For the same molecule, the kon in experiment [1] amounted to 94000 M⁻¹ s⁻¹; in experiment [15] it was 48000 M⁻¹ s⁻¹. Moreover, the EC50 in experiment [2] turned out to be 17.5 nM; in experiment [3], 17.5 nM; in experiment [7] it was 11.2 nM; in [8], 11.2 nM. The IC50 in [4] was found to be 140 nM; in experiment [5], 140 nM; in experiment [6], 69.3 nM; in experiment [9], 69.3 nM; in [10] it was 10 nM; in experiment [12], 10 nM. Further, the “IC50, DLL4-mediated reporter assay” value in [11] was 1940 nM.

B2: DLLBII129D08 (VHH, not shown: small tags and cut ends)
VHH: EVQLVESGGGLVQAGGSLRLSCAASGRTFSSYAMAWYRQAPGKEREYVAAIRWSGGTAYYADSVQGRFTISRDNAKNTVYLQMNSLKPEDTAVYYCANRAPDTRLEPYLYDYWGQGTQVTVSS
In the case of B2, the Kd amounted to 0.8 nM in experiment [1], 0.8 nM in [13], 0.4 nM in experiment [14] and 0.4 nM in experiment [15]. In addition, the koff in experiment [1] is 0.0002 s⁻¹; in experiment [15], 6.4e-05 s⁻¹. Moreover, the kon was 270000 M⁻¹ s⁻¹ in experiment [1] and 180000 M⁻¹ s⁻¹ in experiment [15]. Also, the EC50 is 9.6 nM in experiment [2]; 9.6 nM in experiment [3]; 3.7 nM in experiment [16]; 3.8 nM in experiment [7]; 3.7 nM in experiment [17]; 3.8 nM in experiment [8]. For the same molecule, the IC50 in experiment [4] stood at 11 nM; in [5] it was 11 nM; in experiment [6], 7.8 nM; in [9], 7.8 nM; in [10], 1.2 nM; in experiment [12], 1.2 nM. Further, the “IC50, DLL4-mediated reporter assay” value in [11] was 77 nM.

B3: DLLBII129E11 (VHH, not shown: small tags and cut ends)
VHH: EVQLVESGGGLVQAGGSLRLSCAASGRTFSSYAMAWYRQAPGKEREYVAAIRWSGGTAYYADSVQGRFTISRDNAKNTVYLQMNSLKPEDTAVYYCANRAPDTRLRPYLYDYWGQGTQVTVSS
Take B3: the Kd turned out to be 1.2 nM in [1], 1.2 nM in experiment [13], 0.5 nM in experiment [14] and 0.5 nM in [15]. Further, the koff in experiment [1] worked out at 0.00029 s⁻¹; in experiment [15] it was 9e-05 s⁻¹. Also, the kon amounted to 250000 M⁻¹ s⁻¹ in experiment [1] and 190000 M⁻¹ s⁻¹ in [15]. In addition, the EC50 in experiment [2] is 1.4 nM; in experiment [3], 10.4 nM; in experiment [16], 4.1 nM; in [7], 4.2 nM; in [17], 4.1 nM; in [8], 4.2 nM. Also, the IC50 in experiment [4] came out at 12.3 nM; in experiment [5] it was 12.3 nM; in experiment [6], 8.1 nM; in [9] it was 8.1 nM; in experiment [10], 1.3 nM; in [12], 1.3 nM. For the same molecule, in experiment [11], the “IC50, DLL4-mediated reporter assay” value was 98 nM.

B4: DLLBII129B05 (VHH, not shown: small tags and cut ends)
VHH: EVQLVESGGGLVQAGGSLRLSCAASGRTFSSYAMAWYRQAPGKEREYVAAIRWSGGTAYYADSVQGRFTISRDNAKNTVYLQMNSLKPEDTAVYYCANRAPDTRLAPYEYDHWGQGTQVTVSS
Turning to B4, the Kd in experiment [1] amounted to 1.1 nM; in experiment [13], 1.1 nM; in [14], 0.3 nM; in experiment [15] it was 0.3 nM. Further, the figures for the off-rate (koff) in experiment [1] and in [15] were 0.00031 s⁻¹ and 7.9e-05 s⁻¹, respectively. The on-rate (kon) in experiment [1] worked out at 270000 M⁻¹ s⁻¹; in experiment [15], 230000 M⁻¹ s⁻¹. In addition, the EC50 amounted to 9.7 nM in [2]; 9.7 nM in [3]; 3.9 nM in [16]; 3.9 nM in experiment [7]; 3.9 nM in [17]; 3.9 nM in experiment [8]. Also, the IC50 in experiment [4] is 14.4 nM; in [5], 14.4 nM; in experiment [6], 7.4 nM; in experiment [9], 7.4 nM; in experiment [10], 0.9 nM; in experiment [12], 0.9 nM. For the same molecule, in experiment [11], the “IC50, DLL4-mediated reporter assay” value amounted to 60 nM.

B5: DLLBII015 (VHH, not shown: small tags and cut ends)
VHH: EVQLVESGGGLVQPGGSLRLSCAASGFTIGSYDMSWVRRSPGKGPEWVSAINSGGGSTYYADYVKGRFTISRDNAKNTLYLQMNSLKPEDTAVYYCAADRYIWARQGEYWGAYAYDYWGQGTQVTVSS
Regarding B5, the Kd in experiment [1] was found to be 4.3 nM; in [13], 4.3 nM; in experiment [14], 1 nM; in [15], 1 nM. Also, the koff came to 0.0015 s⁻¹ in experiment [1] and 0.00047 s⁻¹ in experiment [15]. Besides, the values for the kon in experiment [1] and in [15] were 350000 M⁻¹ s⁻¹ and 450000 M⁻¹ s⁻¹, respectively. The 50% effective concentration (EC50) in experiment [2] amounted to 14.8 nM; in experiment [3], 14.8 nM; in [16] it was 7 nM; in [7], 5.1 nM; in experiment [17], 7 nM; in [8], 5.1 nM. Also, the half-inhibitory concentration (IC50) in experiment [4] was 21.2 nM; in experiment [5] it was 21.2 nM; in experiment [6] it was 5.7 nM; in experiment [9], 5.7 nM; in experiment [10] it was 0.9 nM; in experiment [12], 0.9 nM. The “IC50, DLL4-mediated reporter assay” value in experiment [11] was 18 nM.

(Values after US20140120095A1 (Boehringer Ingelheim, published 2014).)
